What was measured:
mouse IL-25 (NS0) = experiment: SPR
Mouse (NSO) = experiment: binding affinity
Cyno Monkey (HEK) = experiment: binding affinity
[1] = molecular target: T1, recombinant human IL-25 (R&D Systems) (human, UniProt Q9H293 33-177); experiment: SPR
T1 chain: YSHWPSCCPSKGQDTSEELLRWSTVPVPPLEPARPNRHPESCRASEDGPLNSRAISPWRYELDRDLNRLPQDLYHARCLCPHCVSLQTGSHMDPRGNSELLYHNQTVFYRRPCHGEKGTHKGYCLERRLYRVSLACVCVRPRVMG

[2] = molecular target: T1, recombinant human IL-25 (R&D Systems); experiment: binding affinity
ABM126 = experiment: binding affinity
ABM126.4 = experiment: binding affinity
ABM109.2 = experiment: binding affinity
ABM 109 = experiment: SPR
ABM 109.2 = experiment: SPR
hABM125.9 = experiment: SPR
hABM125.10 = experiment: SPR

B1: ABM125 (antibody, V domains shown)
VH: QVTLKVSGPGILQPSQTLSLTCSFSGFSLNTSGMGVGWIRQPSGKGLEWLAHIWWDDVKRYNPALKSRLTISKDTSGSQVFLKIASVDTADTATYYCARTLPHFFDYWGQGTTLTVSS
VL: DIQMTQSPAIMSASPGEKVTISCRASSSVSYMYWYQQKSGSSPKPWIYRTSNLASGVPARFSGSGSGTSYSLTISSMEAEDAATYYCKQYHSYPPTWTFGGGTKLEIKR
modifications: N-glycosylation site in heavy chain CDR1 created by S29N, confirmed biophysically
In the case of B1, the Kd (mouse IL-25 (NS0)) is reported as 0.0073 nM, the Kd (Mouse (NSO)) is reported as 0.168 nM and the Kd (Cyno Monkey (HEK)) is reported as 0.17 nM.

B2: ABM125 (Chimera) (antibody, V domains shown)
VH: QVTLKVSGPGILQPSQTLSLTCSFSGFSLNTSGMGVGWIRQPSGKGLEWLAHIWWDDVKRYNPALKSRLTISKDTSGSQVFLKIASVDTADTATYYCARTLPHFFDYWGQGTTLTVSS
VL: DIQMTQSPAIMSASPGEKVTISCRASSSVSYMYWYQQKSGSSPKPWIYRTSNLASGVPARFSGSGSGTSYSLTISSMEAEDAATYYCKQYHSYPPTWTFGGGTKLEIKR
modifications: N-glycosylation site in heavy chain CDR1 created by S29N, confirmed biophysically
In the case of B2, the Kd [1] is reported as 0.0053 nM and the Kd [2] is reported as 0.128 nM.

B3: ABM125.38 (antibody, V domains shown)
VH: QVTLKESGPTLVKPTQTLTLTCTFSGFSLSTSGMGVGWIRQPPGKALEWLAHIWWDDVKRYNPSLKSRLTITKDTSGSQVVLTMTNMDPVDTATYYCARTLPHFHDYWGQGTTLTVSS
VL: DIQMTQSPSTLSASVGDRVTITCRASSSVSYMYWYQQKPGKAPKPLIYRTSNLASGVPSRFSGSGSGTEYTLTISSLQPDDFATYYCKQYHSYPPTWTFGGGTKVEIKR
B3 was tested, and the Kd (Mouse (NSO)) was 0.096 nM and the Kd (Cyno Monkey (HEK)) was 0.235 nM.

B4: LNR125.38 (antibody, V domains shown)
VH: QVTLKESGPTLVKPTQTLTLTCTFSGFSLSTSGMGVGWIRQPPGKALEWLAHIWWDDVKRYNPSLKSRLTITKDTSGSQVVLTMTNMDPVDTATYYCARTLPHFHDYWGQGTTLTVSS
VL: DIQMTQSPSTLSASVGDRVTITCRASSSVSYMYWYQQKPGKAPKPLIYRTSNLASGVPSRFSGSGSGTEYTLTISSLQPDDFATYYCKQYHSYPPTWTFGGGTKVEIKR
For B4, the Kd [2] was 0.051 nM.

B5: Human (HEK) (ligand)
chain: YSHWPSCCPSKGQDTSEELLRWSTVPVPPLEPARPNRHPESCRASEDGPLNSRAISPWRYELDRDLNRLPQDLYHARCLCPHCVSLQTGSHMDPRGNSELLYHNQTVFYRRPCHGEKGTHKGYCLERRLYRVSLACVCVRPRVMG
B5 gave a Kd (ABM126) of 0.043 nM, a Kd (ABM126.4) of 0.024 nM and a Kd (ABM109.2) of 1 nM.

B6: human IL-25 (ligand)
chain: YSHWPSCCPSKGQDTSEELLRWSTVPVPPLEPARPNRHPESCRASEDGPLNSRAISPWRYELDRDLNRLPQDLYHARCLCPHCVSLQTGSHMDPRGNSELLYHNQTVFYRRPCHGEKGTHKGYCLERRLYRVSLACVCVRPRVMG
B6 showed a Kd (ABM 109) of 0.004 nM and a Kd (ABM 109.2) of 0.024 nM.

B7: human IL-25 (HEK) (ligand)
chain: YSHWPSCCPSKGQDTSEELLRWSTVPVPPLEPARPNRHPESCRASEDGPLNSRAISPWRYELDRDLNRLPQDLYHARCLCPHCVSLQTGSHMDPRGNSELLYHNQTVFYRRPCHGEKGTHKGYCLERRLYRVSLACVCVRPRVMG
In the case of B7, the Kd (hABM125.9) is reported as 0.061 nM and the Kd (hABM125.10) is reported as 0.374 nM.

— patent US20240400671A1 (published 2024)
